± gives the standard deviation of the averaged measurements.
Assay: total protein half-life in vivo (active degradation + dilution); higher = more stable protein
[1] = E. coli NCM3722 delta-clpP delta-lon delta-hslV, growth: N-lim chemostat, doubling time 6 h
[2] = E. coli NCM3722 delta-hslV, growth: N-lim chemostat, doubling time 6 h
[3] = wild type E. coli NCM3722, growth: C-lim chemostat, doubling time 3 h
[4] = wild type E. coli NCM3722, growth: C-lim chemostat, doubling time 6 h
[5] = wild type E. coli NCM3722, growth: C-lim chemostat, doubling time 12 h
[6] = wild type E. coli NCM3722, growth: N-lim chemostat, doubling time 6 h
[7] = E. coli NCM3722 delta-smpB, growth: N-lim chemostat, doubling time 6 h
[8] = wild type E. coli NCM3722, growth: P-lim chemostat, doubling time 6 h
[9] = wild type E. coli NCM3722, growth: P-lim chemostat, doubling time 12 h
[10] = E. coli NCM3722 delta-clpP, growth: N-lim chemostat, doubling time 6 h
[11] = wild type E. coli NCM3722, growth: N-lim chemostat, doubling time 12 h

Row | Sequence | total protein half-life in vivo [1] [h] | total protein half-life in vivo [2] [h] | total protein half-life in vivo [3] [h] | total protein half-life in vivo [4] [h] | total protein half-life in vivo [5] [h] | total protein half-life in vivo [6] [h] | total protein half-life in vivo [7] [h] | total protein half-life in vivo [8] [h] | total protein half-life in vivo [9] [h] | total protein half-life in vivo [10] [h] | total protein half-life in vivo [11] [h] | total protein half-life in vivo (E. coli NCM3722 delta-lon, growth: N-lim chemostat, doubling time 6 h) [h]
1 | MPQQIELRNIALQAAQPLVHGVSLTLQRGRVLALVGGSGSGKSLTCAATLGILPAGVRQTAGEILADGKPVSPCALRGIKIATIMQNPRSAFNPLHTMHTHARETCLALGKPADDATLTAAIEAVGLENAARVLKLYPFEMSGGMLQRMMIAMAVLCESPFIIADEPTTDLDVVAQARILDLLESIMQKQAPGMLLVTHDMGVVARLADDVAVMSDGKIVEQGDVETLFNAPKHTVTRSLVSAHLALYGMELAS | 4.47 | – | – | – | – | – | – | – | – | – | – | –
2 | MQQIARSVALAFNNLPRPHRVMLGSLTVLTLAVAVWRPYVYHRDATPIVKTIELEQNEIRSLLPEASEPIDQAAQEDEAIPQDELDDKIAGEAGVHEYVVSTGDTLSSILNQYGIDMGDITQLAAADKELRNLKIGQQLSWTLTADGELQRLTWEVSRRETRTYDRTAANGFKMTSEMQQGEWVNNLLKGTVGGSFVASARNAGLTSAEVSAVIKAMQWQMDFRKLKKGDEFAVLMSREMLDGKREQSQLLGVRLRSEGKDYYAIRAEDGKFYDRNGTGLAKGFLRFPTAKQFRISSNFNPRRTNPVTGRVAPHRGVDFAMPQGTPVLSVGDGEVVVAKRSGAAGYYVAIRHGRSYTTRYMHLRKILVKPGQKVKRGDRIALSGNTGRSTGPHLHYEVWINQQAVNPLTAKLPRTEGLTGSDRREFLAQAKEIVPQLRFD [P0AFS9] | 3.29 | 6.32 | 0.826 ± 0.34 | 3.3 ± 0.13 | 6.19 | 5.39 | – | – | – | – | – | –
3 | MDVQQFFVVAVFFLIPIFCFREAWKGWRAGAIDKRVKNAPEPVYVWRAKNPGLFFAYMVAYIGFGILSIGMIVYLIFYR | 2.64 | 3.67 | – | 1.84 | – | – | 4.42 | 4.74 | 8.43 | – | – | –
4 | MDTPRPQLLDFQFHQNNDSFTLHFQQRLILTHSKDNPCLWIGSGIADIDMFRGNFSIKDKLQEKIALTDAIVSQSPDGWLIHFSRGSDISATLNISADDQGRLLLELQNDNLNHNRIWLRLAAQPEDHIYGCGEQFSYFDLRGKPFPLWTSEQGVGRNKQTYVTWQADCKENAGGDYYWTFFPQPTFVSTQKYYCHVDNSCYMNFDFSAPEYHELALWEDKATLRFECADTYISLLEKLTALLGRQPELPDWIYDGVTLGIQGGTEVCQKKLDTMRNAGVKVNGIWAQDWSGIRMTSFGKRVMWNWKWNSENYPQLDSRIKQWNQEGVQFLAYINPYVASDKDLCEEAAQHGYLAKDASGGDYLVEFGEFYGGVVDLTNPEAYAWFKEVIKKNMIELGCGGWMADFGEYLPTDTYLHNGVSAEIMHNAWPALWAKCNYEALEETGKLGEILFFMRAGSTGSQKYSTMMWAGDQNVDWSLDDGLASVVPAALSLAMTGHGLHHSDIGGYTTLFEMKRSKELLLRWCDFSAFTPMMRTHEGNRPGDNWQFDGDAETIAHFARMTTVFTTLKPYLKEAVALNAKSGLPVMRPLFLHYEDDAHTYTLKYQYLLGRDILVAPVHEEGRSDWTLYLPEDNWVHAWTGEAFRGGEVTVNAPIGKPPVFYRADSEWAALFASLKSI | 5.5 | 4.79 ± 0.52 | 3.06 ± 0.37 | – | 12.6 ± 3.2 | 4.02 | 4.78 ± 0.19 | 5.4 ± 0.092 | 10.4 ± 0.25 | 4.66 ± 0.079 | 7.22 | –
5 | MKILLIEDNQRTQEWVTQGLSEAGYVIDAVSDGRDGLYLALKDDYALIILDIMLPGMDGWQILQTLRTAKQTPVICLTARDSVDDRVRGLDSGANDYLVKPFSFSELLARVRAQLRQHHALNSTLEISGLRMDSVSHSVSRDNISITLTRKEFQLLWLLASRAGEIIPRTVIASEIWGINFDSDTNTVDVAIRRLRAKVDDPFPEKLIATIRGMGYSFVAVKK | 5.88 ± 0.19 | 5.28 ± 1 | 2.99 ± 0.052 | – | 10.4 ± 0.76 | 4.11 ± 0.2 | 4.91 ± 0.52 | 5.64 ± 0.063 | 11.9 ± 0.75 | 4.67 ± 0.22 | 7.422 ± 0.042 | 4.77 ± 0.42

Reference: the supplement of paper PMC11246515
